Columns and labels:
[1] = target: T1, human claudin 18A1 (CLD18A1) (human, UniProt P56856 1-261); experiment: flow cytometry, hybridoma supernatant on HEK293 cells stably transfected with human CLD18A1
T1 construct: also called CLD18.1; claudin 18 splice variant 1
T1 sequence: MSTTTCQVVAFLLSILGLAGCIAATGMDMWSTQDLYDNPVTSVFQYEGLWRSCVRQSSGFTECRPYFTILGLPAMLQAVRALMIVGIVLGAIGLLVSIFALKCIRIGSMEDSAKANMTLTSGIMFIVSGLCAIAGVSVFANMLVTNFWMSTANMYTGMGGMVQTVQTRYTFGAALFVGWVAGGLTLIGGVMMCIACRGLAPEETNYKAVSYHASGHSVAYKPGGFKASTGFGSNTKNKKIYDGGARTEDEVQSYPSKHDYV
Text: (§1) Individual cells were screened for anti-CLD18A2 monoclonal antibody by flow cytometry, and HEK293 cells (HEK-CLD18A2) stably expressing human CLD18A2 were used for primary screening by flow cytometry using a Guava easyCyte™ HT System instrument. The binding of the antibody to human CLD18A1 and CLD18A2 transformants was then compared by flow cytometry. The instrument used was the Guava easyCyte™ HT System.
(§2) After multiple rounds of preparation and screening of hybridomas, the inventors found several antibodies with relatively ideal binding properties.

[2] = target: T2, human claudin 18A2 (CLD18A2) (human); experiment: flow cytometry, hybridoma supernatant on HEK293-CLD18A2 against HEK293-CLD18A1
T2 construct: also called CLD18.2; CLDN18A2
Text: as §1, §2

[3] = target: T2, human claudin 18A2 (CLD18A2); experiment: flow cytometry, scFv_Fc on HEK293 cells stably transfected with human CLD18A2
Method: Binding of anti-Claudin 18A2 scFv_Fc fusion antibody to HEK293 cells stably transfected with CLD18A2 was determined by flow cytometry. Experimental data was analyzed using GraphPad Prism and Guava easyCyte™ HT System instrument as described in Example 1 to obtain EC50 value.

[4] = target: T2, human claudin 18A2 (CLD18A2); experiment: cell-based or functional assay

binding result [1] | fold difference of average fluorescence intensity, CLD18A2 against CLD18A1 cells [2] | EC50 [3] | also measured | Binder
no binding | > 5 times | – | – | murine monoclonal antibody 3E12 (hybridoma supernatant) (antibody, V domains shown, Mouse hybridoma antibody tested as supernatant) VH: QVQLQQSGPELVKPGALVKISCKASGYTFTSYDINWVKQRPGQGLEWIGWIYPGDGSTKYNEKFKGKATLTADKSSSTAYMQLSSLTSENSAVYFCARGGYRYDEAMDYWGQGTTVTVSS VL: QIVLTQSPAIMSASPGEKVTMTCSASSSISYMHWYQQKPGTSPKRWIYDTSKLASGVPARFSGSGSGTSYSLTISSMEAEDAATYYCHQRSSYPYTFGGGTKLEIKR
– | – | 3.56 nM | – | 2B1 scFv_Fc fusion antibody (scFv of 2B1 fused to human IgG1 Fc portion) (Fc fusion, also called murine anti-2B1 ScFv; not shown: human IgG1 Fc portion) scFv: QVQLQQSGAELARPGASVKMSCKASGYTFTSYTMHWVKQRPGQGLEWIGYINPSSGYTNYNQKFKDKATLTADKSSSTAYMQLSSLTSEDSAVYYCARIYYGNSFAYWGQGTTVTVSSGGGGSGGGGSGGGGSDIVMTQSPSSLTVTAGEKVTMSCKSSQSLLNSGNQKNYLTWYQQKPGQPPKLLIYWASTRESGVPDRFTGSGSGTDFTLTISSVQAEDLAVYYCQNDYSYPLTFGAGTKLELKR
– | – | 3.85 nM | – | 2B1-S54A scFv_Fc fusion antibody (Fc fusion, not shown: human IgG1 Fc portion) scFv: QVQLQQSGAELARPGASVKMSCKASGYTFTSYTMHWVKQRPGQGLEWIGYINPASGYTNYNQKFKDKATLTADKSSSTAYMQLSSLTSEDSAVYYCARIYYGNSFAYWGQGTTVTVSSGGGGSGGGGSGGGGSDIVMTQSPSSLTVTAGEKVTMSCKSSQSLLNSGNQKNYLTWYQQKPGQPPKLLIYWASTRESGVPDRFTGSGSGTDFTLTISSVQAEDLAVYYCQNDYSYPLTFGAGTKLELKR
– | – | 6.11 nM | – | 2B1-N52D scFv_Fc fusion antibody (Fc fusion, not shown: human IgG1 Fc portion) scFv: QVQLQQSGAELARPGASVKMSCKASGYTFTSYTMHWVKQRPGQGLEWIGYIDPSSGYTNYNQKFKDKATLTADKSSSTAYMQLSSLTSEDSAVYYCARIYYGNSFAYWGQGTTVTVSSGGGGSGGGGSGGGGSDIVMTQSPSSLTVTAGEKVTMSCKSSQSLLNSGNQKNYLTWYQQKPGQPPKLLIYWASTRESGVPDRFTGSGSGTDFTLTISSVQAEDLAVYYCQNDYSYPLTFGAGTKLELKR
no binding | > 5 times | – | – | murine monoclonal antibody 8E5 (hybridoma supernatant) (antibody, V domains shown, Mouse hybridoma antibody tested as supernatant) VH: DVQLQESGPDLVKPSQSLSLTCTVTGYSITSGYNWHWIRQFPGNKMEWMGYIHYTGSTNYNPSLRSRISITRDTSKNQFFLQLNSVTTDDTATYYCTRIYNGNSFPYWGQGTSVTVSS VL: DIVMTQSPSSLTVTPGEKVTMTCKSSQSLFNSGNQKNYLTWYQQRPGQPPKMLIYWASTRESGVPDRFTGSGSGTDFTLTISSVQAEDLAVFYCQNAYSFPYTFGGGTKLEIKR
– | – | 49.2 nM | – | 8E5 scFv_Fc fusion antibody (scFv of 8E5 fused to human IgG1 Fc portion) (Fc fusion, also called parent antibody 8E5; not shown: human IgG1 Fc portion) scFv: DVQLQESGPDLVKPSQSLSLTCTVTGYSITSGYNWHWIRQFPGNKMEWMGYIHYTGSTNYNPSLRSRISITRDTSKNQFFLQLNSVTTDDTATYYCTRIYNGNSFPYWGQGTSVTVSSGGGGSGGGGSGGGGSDIVMTQSPSSLTVTPGEKVTMTCKSSQSLFNSGNQKNYLTWYQQRPGQPPKMLIYWASTRESGVPDRFTGSGSGTDFTLTISSVQAEDLAVFYCQNAYSFPYTFGGGTKLEIKR
no binding | > 5 times | – | – | murine monoclonal antibody 2B1 (hybridoma supernatant) (antibody, V domains shown, Mouse hybridoma antibody tested as supernatant) VH: QVQLQQSGAELARPGASVKMSCKASGYTFTSYTMHWVKQRPGQGLEWIGYINPSSGYTNYNQKFKDKATLTADKSSSTAYMQLSSLTSEDSAVYYCARIYYGNSFAYWGQGTTVTVSS VL: DIVMTQSPSSLTVTAGEKVTMSCKSSQSLLNSGNQKNYLTWYQQKPGQPPKLLIYWASTRESGVPDRFTGSGSGTDFTLTISSVQAEDLAVYYCQNDYSYPLTFGAGTKLELKR
no binding | > 5 times | – | – | murine monoclonal antibody 4A11 (hybridoma supernatant) (antibody, V domains shown, Mouse hybridoma antibody tested as supernatant; the latter is used) VH: QIQLVQSGPELKKPGETVKISCKASGYTFTNYGMNWVKQAPGKGLKWMGWINTNTGEPTYAEEFKGRFAFSLETSASTAYLQINNLKNEDTATYFCARFSYGNSFAYWGQGTTVTVSS VL: DIVMTQSPSSLSVSAGEKVTMSCKSSQSLLNSGNQKNYLAWYQQKPGQPPKLLIYGASTRESGVPDRFTGSGSGTDFTLTISSVQAEDLAVYYCQNDHSYPLTFGAGTKLELKR
– | – | 18.6 nM | – | hu2B1-S54A scFv fused to human IgG1 Fc portion (Fc fusion, also called humanized hu2B1-S54A; not shown: human IgG1 Fc portion) scFv: QVQLVQSGAEVKKPGASVKVSCKASGYTFTSYTMHWVRQAPGQGLEWMGYINPASGYTNYNQKFKDRVTMTRDTSTSTAYMELSSLRSEDTAVYYCARIYYGNSFAYWGQGTLVTVSSGGGGSGGGGSGGGGSDIVMTQSPDSLAVSLGERATINCKSSQSLLNSGNQKNYLTWYQQKPGQPPKLLIYWASTRESGVPDRFSGSGSGTDFTLTISSLQAEDVAVYYCQNDYSYPLTFGGGTKVEIKR
– | – | – | ADCC effect (LDH release), antibody 20 µg/ml, effector-to-target ratio 50:1 [4]: 62.8% | humanized antibody hu2B1-S54A (full antibody) (antibody, human IgG1, kappa, V domains shown) VH: QVQLVQSGAEVKKPGASVKVSCKASGYTFTSYTMHWVRQAPGQGLEWMGYINPASGYTNYNQKFKDRVTMTRDTSTSTAYMELSSLRSEDTAVYYCARIYYGNSFAYWGQGTLVTVSS VL: DIVMTQSPDSLAVSLGERATINCKSSQSLLNSGNQKNYLTWYQQKPGQPPKLLIYWASTRESGVPDRFSGSGSGTDFTLTISSLQAEDVAVYYCQNDYSYPLTFGGGTKVEIKR
– | – | – | ADCC effect (LDH release), antibody 20 µg/ml, effector-to-target ratio 50:1 [4]: 72.9% | humanized antibody hu8E5-2I (full antibody) (antibody, human IgG1, kappa, V domains shown) VH: QVQLQESGPGLIKPSQTLSLTCTVSGGSISSGYNWHWIRQPPGKGLEWIGYIHYTGSTNYNPALRSRVTISVDTSKNQFSLKLSSVTAADTAIYYCARIYNGNSFPYWGQGTTVTVSS VL: DIVMTQSPDSLAVSLGERATINCKSSQSLFNSGNQKNYLTWYQQKPGQPPKLLIYWASTRESGVPDRFSGSGSGTDFTLTISSLQAEDVAVYYCQNAYSFPYTFGGGTKLEIKR
– | – | 107 nM | – | hu8E5 scFv fused to human IgG1 Fc portion (Fc fusion, also called hu8E5-S62A; not shown: human IgG1 Fc portion) scFv: QVQLQESGPGLVKPSQTLSLTCTVSGGSISSGYNWHWIRQPPGKGLEWIGYIHYTGSTNYNPALRSRVTISVDTSKNQFSLKLSSVTAADTAVYYCARIYNGNSFPYWGQGTTVTVSSGGGGSGGGGSGGGGSDIVMTQSPDSLAVSLGERATINCKSSQSLFNSGNQKNYLTWYQQKPGQPPKLLIYWASTRESGVPDRFSGSGSGTDFTLTISSLQAEDVAVYYCQNAYSFPYTFGGGTKLEIKR
– | – | 9.22 nM | fold increase of affinity against the parent antibody 8E5 [3]: 5 fold | hu8E5-2I scFv fused to human IgG1 Fc portion (Fc fusion, also called mutant hu8E5-2I; not shown: human IgG1 Fc portion) scFv: QVQLQESGPGLIKPSQTLSLTCTVSGGSISSGYNWHWIRQPPGKGLEWIGYIHYTGSTNYNPALRSRVTISVDTSKNQFSLKLSSVTAADTAIYYCARIYNGNSFPYWGQGTTVTVSSGGGGSGGGGSGGGGSDIVMTQSPDSLAVSLGERATINCKSSQSLFNSGNQKNYLTWYQQKPGQPPKLLIYWASTRESGVPDRFSGSGSGTDFTLTISSLQAEDVAVYYCQNAYSFPYTFGGGTKLEIKR

Reference: patent US11111295 (CAFA THERAPEUTICS, dated 2021)
